Experimental data published in US20170165337A1 (IMMATICS BIOTECHNOLOGIES, published 2017).

The binders below were run against T1, HLA-A*02:01 (human) (assay: UV peptide-exchange ELISA).
T1 construct: MHC class I monomer of the UV-ligand exchange assay; also called peptide-receptive MHC molecules; MHC class I
In short: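 Peptide-MHC complexes formed by UV-mediated exchange of a UV-cleavable peptide for the test peptide; exchange yield quantified by β2m ELISA. Diluted 100-fold, captured on streptavidin-coated plates 1 h at 37 °C, detected with HRP anti-β2m and TMB at 450 nm against refolded HLA-A*02:01 monomer standards (15-500 ng/ml).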

FMEPTLLML and FLDPSLDPLL fall in the same range of peptide exchange yield: 50 to 75% for the first, 50 to 75% for the second.

ALLERTGYTL and LISPLLLPV fall in the same range of peptide exchange yield: 50 to 75% for the first, 50 to 75% for the second.

YLLREWVNL and FVLDHEDGLNL cannot be ordered by peptide exchange yield: at least 75% for the first, 50 to 75% for the second.

First: YLLPLLQRL
Second: GLSIFAQDLRL
The peptide exchange yield of the first is higher: at least 75% for the first, 20 to 50% for the second.

FLLSINDFL and SLFGPLPGPGPALV fall in the same range of peptide exchange yield: 50 to 75% for the first, 50 to 75% for the second.

FIMEGGAMVL and YTIPLAIKL cannot be ordered by peptide exchange yield: at least 75% for the first, 50 to 75% for the second.

SIFASPESV and VLYNQRVEEI fall in the same range of peptide exchange yield: 50 to 75% for the first, 50 to 75% for the second.

YLLEENKIKL and FLEEGGVVTV fall in the same range of peptide exchange yield: 50 to 75% for the first, 50 to 75% for the second.

FVYFIVREV and FLTDLFAQL cannot be ordered by peptide exchange yield: 50 to 75% for the first, at least 75% for the second.

YLAELVTPIL and GLSEISLRL cannot be ordered by peptide exchange yield: 50 to 75% for the first, at least 75% for the second.

FIMEGGAMV and YIIDSAQAV fall in the same range of peptide exchange yield: 50 to 75% for the first, 50 to 75% for the second.

SLADDSVLERL and FLVETGFLHV cannot be ordered by peptide exchange yield: 50 to 75% for the first, at least 75% for the second.

YILGKFFAL and SLAGGLDDMKA fall in the same range of peptide exchange yield: 50 to 75% for the first, 50 to 75% for the second.

RLLDLENSLLGL and ITTEVVNELYV fall in the same range of peptide exchange yield: 50 to 75% for the first, 50 to 75% for the second.

FVFEAPYTL and YLDRKLLTL fall in the same range of peptide exchange yield: 50 to 75% for the first, 50 to 75% for the second.

FVFGDENGTVSL and GLHQREIFL fall in the same range of peptide exchange yield: 50 to 75% for the first, 50 to 75% for the second.

KMDWIFHTI and FLIQEIKTL fall in the same range of peptide exchange yield: 50 to 75% for the first, 50 to 75% for the second.

SLAHVAGCEL and GIIDGSPRL fall in the same range of peptide exchange yield: 50 to 75% for the first, 50 to 75% for the second.

Compared with FLDEDDMSL, FLDALLTDV is higher in peptide exchange yield: 20 to 50% for the first, 50 to 75% for the second.

Compared with GLDDVTVEV, FLTDYLNDL is higher in peptide exchange yield: 20 to 50% for the first, 50 to 75% for the second.

Compared with GLLRASFLL, NLWSLVAKV is higher in peptide exchange yield: 20 to 50% for the first, 50 to 75% for the second.

FVPDTPVGV and FLWQHVELVL fall in the same range of peptide exchange yield: 50 to 75% for the first, 50 to 75% for the second.

FILTHVDQL and VVDGTCVAV cannot be ordered by peptide exchange yield: at least 75% for the first, 50 to 75% for the second.

ILTELGGFEV and FLPELPADLEA fall in the same range of peptide exchange yield: 50 to 75% for the first, 50 to 75% for the second.

FLSPQQPPLL and VLWFKPVEL fall in the same range of peptide exchange yield: 50 to 75% for the first, 50 to 75% for the second.

FLFEPVVKAFL and ALDTLEDDMTI fall in the same range of peptide exchange yield: 50 to 75% for the first, 50 to 75% for the second.

Compared with GLDQQFAGLDL, ALIFKIASA is higher in peptide exchange yield: 10 to 20% for the first, 50 to 75% for the second.

GLKHDIARV and FMQDPMEVFV fall in the same range of peptide exchange yield: 50 to 75% for the first, 50 to 75% for the second.

First: FLSDQPEPYL
Second: FLLGPEALSFA
The peptide exchange yield of the first is lower: 20 to 50% for the first, at least 75% for the second.

First: YMIGSEVGNYL
Second: GLDDMKANL
The peptide exchange yield of the first is higher: at least 75% for the first, 20 to 50% for the second.

VIAELPPKVSV and VLSVITEEL fall in the same range of peptide exchange yield: 50 to 75% for the first, 50 to 75% for the second.

HLIDTNKIQL and FLYPFPLALF fall in the same range of peptide exchange yield: 50 to 75% for the first, 50 to 75% for the second.

First: GLLEVISALQL
Second: TLLADQGEIRV
The peptide exchange yield of the first is higher: 50 to 75% for the first, 20 to 50% for the second.

ILQEFESKL and GLLDAGKMYV fall in the same range of peptide exchange yield: 50 to 75% for the first, 50 to 75% for the second.

YIQQGIFSV and KLLESVASA fall in the same range of peptide exchange yield: 50 to 75% for the first, 50 to 75% for the second.

FIWPMLIHI and FLVEAPHDWDL cannot be ordered by peptide exchange yield: 50 to 75% for the first, at least 75% for the second.

FLHDHQAEL showed a peptide exchange yield of 20 to 50%.
